Results reported in patent US20230192841A1 (NANJING LEGEND BIOTECH, published 2023).

Molecular target: T1, human Claudin18.2 (human, UniProt P56856-2 1-261)
T1 construct: whole, on cells; expressed on Dubca, HEK293T, PANC1 cells by lentiviral transduction; endogenous on NUGC4 and KATOIII cells; also called huCLDN18.2; CLDN18.2
Test: phage ELISA and cell binding of phage supernatant, HEK293T.huCLDN18.2.Luc cells
Description: Phage ELISA was performed to identify clones specific to the target antigens. Individual output phage clones were grown in 96-deep-well plates and rescued by M13KO7 helper phage overnight. To identify clones that bound to antigen proteins, 96-well ELISA microtiter plates were coated with recombinant human HEK293T.huCLDN18.1.Luc and HEK293T.huCLDN18.2.Luc cells respectively in coating buffer overnight at 4° C., and the plates were then blocked with blocking buffer. After blocking, approximately 50 µL per well of phage supernatant from overnight cell culture was added to the plates for 1.5-hour incubation at 4° C. The plates were washed four times, and the HRP-conjugated anti-M13 monoclonal antibody was added to the plates for 45-minute incubation at 4° C. The plates were again washed five times and substrate solution was added to the wells for color developing. Absorbance at 450 nm was measured for each well.
To further identify clones that bind HEK293T.huCLDN18.2.Luc cells, the HEK293T.CLDN18.2.Luc cells were blocked with blocking buffer at room temperature for 1 hour. After blocking, approximately 20 µL per well of phage supernatant from overnight cell culture was added to the cell solutions for 1-hour incubation at room temperature. […] The absorption was measured at 450 nm.

binding result: binds
B1: VHH182512 (VHH)
VHH: EVQLVESGGGSVQAGGSLTLSCEASRSTANMAWFRQGPGKEREGVAAAHSDGSTKYADSVKGRFTISKDNGKNTLYLRMNGLKPEEGVMYYCAARGSPWWNSVVALESYAYSYWGQGTQVTVSS
